Data from PMC8795592, “Human Dermcidin Protects Mice Against Hepatic Ischemia-Reperfusion–Induced Local and Remote Inflammatory Injury” (Frontiers in Immunology, 2021).

Tests used:
[1] = biological target: T1, recombinant EGFR corresponding to the extracellular domain (residue 25-645) (human, UniProt P00533 25-645); assay: SPR; Biacore T200; DCD immobilised on CM5 chip; EGFR extracellular domain applied as analyte at 5 concentrations; KD by Biacore evaluation software 2.0 supposing a 1:1 binding ratio; settings: both partners purified
T1 construct: epidermal growth factor receptor (EGFR), human, extracellular domain, residues 25-645; also called extracellular domain of human EGFR; epidermal growth factor receptor; source: bought: RayBiotech

[2] = biological target: the molecule itself; assay: SDS-PAGE with and without DTT; purified recombinant His-tagged protein run on SDS-PAGE in the presence or absence of the reducing agent dithiothreitol; shows disulfide-linked (covalent) dimers only
[3] = biological target: T1, recombinant EGFR corresponding to the …; assay: SPR; Nicoya Lifesciences OpenSPR (gold nanoparticles); DCD or DCD-C34S with 6×His tag immobilised on NTA sensor chip; EGFR extracellular domain applied as analyte at three concentrations; KD by Trace Drawer Kinetic Data Analysis v.1.6.1; settings: both partners purified

Binder | Kd [1] [nM] | stoichiometry N [2] | Kd [3] [nM]
recombinant human dermcidin (full-length DCD precursor, residue 20-110) with N-terminal 6×His tag (natural protein, UniProt P81605 20-110, looked up, dermcidin (DCD), human, residues 20-110, without the N-terminal 19-aa signal leader peptide (residue 1-19); one sentence of the methods says residue 20-100; Without a reducing agent the preparation is a mixture of monomers and disulfide-linked dimers (through Cys34); results and legends print 20-110; also called recombinant DCD; source: E. coli BL21 (DE3) pLysS, purified; Triton X-114 extraction …) YDPEAASAPGSGNPCHEASAAQKENAGEDPGLARQAPKPRKQRSSLLEKGLDGAKKAVGGLGKLGKDAVEDLESVGKGAVHDVKDVLDSVL | 58.8 | 2 | 58.1
DCD-C34S analog (recombinant human dermcidin residue 20-110 with a Cys to Ser substitution at residue 34, N-terminal 6×His tag) (natural protein, UniProt P81605 20-110, looked up, dermcidin (DCD), human, residues 20-110 without the signal leader peptide, with C34S; Made by similar procedures as m1; source: E. coli BL21 (DE3) pLysS, purified to homogeneity; Triton X-114 extraction to remove endotoxins; not shown: His6, N-terminal, kept) YDPEAASAPGSGNPSHEASAAQKENAGEDPGLARQAPKPRKQRSSLLEKGLDGAKKAVGGLGKLGKDAVEDLESVGKGAVHDVKDVLDSVL |  |  | 57.9
